pEC50: −log10 of the molar value.
Molecular target: T1, CD22 (Homo sapiens, UniProt P20273)
T1 construct: host or cells: Raji cells
Assay: Binding of AGC1115 and AGC1100 to CD22-positive Raji cells by flow cytometry
Settings: flow cytometry MFI, 1.5 h at 4° C., four-parameter fit, read-out: EC50 of fitted titration curve (binding potency)
Protocol: Binding of AGC1115 and AGC1100 (anti-human CD22, Immunomedics; hLL2, #1003164, 10 mg/ml) to CD22-positive Raji cells (ATCC, #CCL-86) was analysed by flow cytometry. The EC50 value determined from the fitted curve was used for comparison of the antibody versus the antibody conjugate binding potency. This analysis was used to confirm that antibody conjugate binding potency to CD22 was unaffected by the conjugation procedure.
Raji cells were grown in RPMI 1640 (PAA; #E15-840) in the presence of 10% fetal bovine serum (FBS) and 1% penicillin/streptomycin. For the flow cytometry analysis 50 ml cell culture was harvested by centrifugation at 4° C. for 5 min at 340×g. […] Subsequently, 20 μl of the preparation of resuspended cells was diluted 1:500 in Coulter Isoton II Diluent, and counted using Beckman Coulter Z2 instrumentation (Beckman Coulter; CA, USA). […]
AGC1115 and AGC1100 was diluted to 50 μg/ml and titrated in twelve points in 3-fold dilution steps. […] All samples were analysed in a V-shaped bottom 96-well plate. Fluorescent signal was recorded on a Beckman Coulter Cell Lab Quanta SC MPL flow cytometer (Beckman Coulter; CA, USA). […]
Data was fitted using the “log(agonist) vs. response—Variable slope (four parameters)” binding model in Graph Pad Prism (PrismSoftware; CA, USA) and the EC50 values was calculated from the fit (FIG. 2).

- pEC50: 8.05
Substance: AGC1100: anti-CD22 monoclonal antibody hLL2, also called epratuzumab

Reference: patent US20150104385A1, “RADIO-PHARMACEUTICAL COMPLEXES” (Algeta ASA, priority 2012, published 2015)
